From US20060172940

Target: T1, synthetic full length mucocidin peptide (46-mer)
T1 chain: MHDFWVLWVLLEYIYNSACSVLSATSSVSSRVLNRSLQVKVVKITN

B1: guinea pig liver transglutaminase (protein)
chain: AEDLILERCDLQLEVNGRDHRTADLCRERLVLRRGQPFWLTLHFEGRGYEAGVDTLTFNAVTGPDPSEEAGTMARFSLSSAVEGGTWSASAVDQQDSTVSLLLSTPADAPIGLYRLSLEASTGYQGSSFVLGHFILLYNPRCPADAVYMDSDQERQEYVLTQQGFIYQGSAKFINGIPWNFGQFEDGILDICLMLLDTNPKFLKNAGQDCSRRSRPVYVGRVVSAMVNCNDDQGVLQGRWDNNYSDGVSPMSWIGSVDILRRWKDYGCQRVKYGQCWVFAAVACTVLRCLGIPTRVVTNFNSAHDQNSNLLIEYFRNESGEIEGNKSEMIWNFHCWVESWMTRPDLEPGYEGWQALDPTPQEKSEGTYCCGPVPVRAIKEGHLNVKYDAPFVFAEVNADVVNWIRQKDGSLRKSINHLVVGLKISTKSVGRDEREDITHTYKYPEGSEEEREAFVRANHLNKLATKEEAQEETGVAMRIRVGQNMTMGSDFDIFAYITNGTAESHECQLLLCARIVSYNGVLGPVCSTNDLLNLTLDPFSENSIPLHILYEKYGDYLTESNLIKVRGLLIEPAANSYVLAERDIYLENPEIKIRVLGEPKQNRKLIAEVSLKNPLPVPLLGCIFTVEGAGLTKDQKSVEVPDPVEAGEQAKVRVDLLPTEVGLHKLVVNFECDKLKAVKGYRNVIIGPA
  Transglutaminase catalyzed monodansylcadaverine (MDC) incorporation into mucocidin: The time-dependent uptake of MDC into mucocidin (FIG. 4C) was detected only in the presence of Ca^++ but not in its absence
